Measurements taken from the supplement of paper PMC7125110.
± gives the standard error. This sample holds only a part of the variants without activity.

B1: glmS ribozyme (parent)
chain: AUAAAAGCGCCAGAACUACAGAAAUGUAGUUGACGAGGAGGAGGUUUAUCGAAUUUUCGGCGGAUGCCUCCAAA

Experiments:
Conditions in all cases: with glucosamine-6-phosphate
[1] = variants of: B1; assay: self-cleavage kobs at 160 uM GlcN6P; higher = faster cleavage; RNA array
How it was run: (§1)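 Using a hybridised Cy3 probe at 37 °C, barcoded ribozyme variants transcribed in situ by E. coli RNA polymerase on sequenced MiSeq chips were monitored across tiles imaged over ~14 h. The flow contained glucosamine-6-phosphate from 40 μM to 10 mM in HEPES/KCl/Mg(OAc)2 buffer. Signals were normalised to baseline and to non-cleaving reference variants before per-tile medians were fit to one- or two-exponential decays to yield kobs. Weighted Michaelis–Menten fits across concentrations gave kcat and KM.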

[2] = variants of: B1; assay: self-cleavage kobs at 2500 uM GlcN6P; higher = faster cleavage; RNA array
How it was run: as §1

[3] = variants of: B1; assay: self-cleavage kobs at 640 uM GlcN6P; higher = faster cleavage; RNA array
How it was run: as §1

[4] = variants of: B1; assay: self-cleavage kobs at 10000 uM GlcN6P; higher = faster cleavage; RNA array
How it was run: as §1

G13U A36U G43A G51A C67G C70U
self-cleavage kobs at 160 uM GlcN6P [1]: < 1e-05 s⁻¹
self-cleavage kobs at 2500 uM GlcN6P [2]: < 1e-05 s⁻¹

G35U U57G C71A
self-cleavage kobs at 640 uM GlcN6P [3]: < 1e-05 s⁻¹
self-cleavage kobs at 2500 uM GlcN6P [2]: < 1e-05 s⁻¹

G29U A53C
self-cleavage kobs at 640 uM GlcN6P [3]: 0.00015 ± 7.4e-05 s⁻¹
self-cleavage kobs at 2500 uM GlcN6P [2]: 0.00118 ± 0.00032 s⁻¹
self-cleavage kobs at 10000 uM GlcN6P [4]: 0.000874 ± 0.00028 s⁻¹

C8G C34G A52G
self-cleavage kobs at 160 uM GlcN6P [1]: < 1e-05 s⁻¹
self-cleavage kobs at 640 uM GlcN6P [3]: < 1e-05 s⁻¹

A15G U55G C71G
self-cleavage kobs at 160 uM GlcN6P [1]: 0.00025 ± 5.3e-05 s⁻¹
self-cleavage kobs at 640 uM GlcN6P [3]: 0.000408 ± 9.6e-05 s⁻¹
self-cleavage kobs at 2500 uM GlcN6P [2]: 0.000866 ± 0.00028 s⁻¹

G51A G63U U65A
self-cleavage kobs at 640 uM GlcN6P [3]: < 1e-05 s⁻¹

U31G G41U U47G G62U A64U C70G
self-cleavage kobs at 160 uM GlcN6P [1]: < 1e-05 s⁻¹
self-cleavage kobs at 640 uM GlcN6P [3]: < 1e-05 s⁻¹

G29C G43U U57G
self-cleavage kobs at 640 uM GlcN6P [3]: < 1e-05 s⁻¹

G9A G29A A42G A48C U65A
self-cleavage kobs at 160 uM GlcN6P [1]: < 1e-05 s⁻¹
self-cleavage kobs at 640 uM GlcN6P [3]: < 1e-05 s⁻¹
self-cleavage kobs at 2500 uM GlcN6P [2]: < 1e-05 s⁻¹

A12G A33G
self-cleavage kobs at 160 uM GlcN6P [1]: < 1e-05 s⁻¹
self-cleavage kobs at 640 uM GlcN6P [3]: < 1e-05 s⁻¹
self-cleavage kobs at 2500 uM GlcN6P [2]: < 1e-05 s⁻¹
self-cleavage kobs at 10000 uM GlcN6P [4]: < 1e-05 s⁻¹

G7U U30C G32A
self-cleavage kobs at 160 uM GlcN6P [1]: < 1e-05 s⁻¹
self-cleavage kobs at 10000 uM GlcN6P [4]: < 1e-05 s⁻¹

G9C C10A G43C C67U
self-cleavage kobs at 160 uM GlcN6P [1]: < 1e-05 s⁻¹
self-cleavage kobs at 640 uM GlcN6P [3]: < 1e-05 s⁻¹
self-cleavage kobs at 2500 uM GlcN6P [2]: < 1e-05 s⁻¹

C10U G51C
self-cleavage kobs at 160 uM GlcN6P [1]: < 1e-05 s⁻¹

U31A C34U A42C A48U G62U
self-cleavage kobs at 640 uM GlcN6P [3]: < 1e-05 s⁻¹

C8G A33C A48C U69G
self-cleavage kobs at 160 uM GlcN6P [1]: < 1e-05 s⁻¹
self-cleavage kobs at 2500 uM GlcN6P [2]: < 1e-05 s⁻¹

A12U U45G U56A
self-cleavage kobs at 160 uM GlcN6P [1]: 0.000953 ± 0.00021 s⁻¹
self-cleavage kobs at 640 uM GlcN6P [3]: 0.00298 ± 0.0006 s⁻¹

C50A C67U C71G
self-cleavage kobs at 160 uM GlcN6P [1]: 4.46e-05 ± 2.1e-05 s⁻¹
self-cleavage kobs at 640 uM GlcN6P [3]: 0.000107 ± 2.5e-05 s⁻¹

A12C G40A U65A
self-cleavage kobs at 640 uM GlcN6P [3]: 9.15e-05 ± 1.3e-05 s⁻¹
self-cleavage kobs at 2500 uM GlcN6P [2]: 0.000293 ± 5.4e-05 s⁻¹

G7C C34U
self-cleavage kobs at 160 uM GlcN6P [1]: < 1e-05 s⁻¹
self-cleavage kobs at 640 uM GlcN6P [3]: < 1e-05 s⁻¹
self-cleavage kobs at 2500 uM GlcN6P [2]: < 1e-05 s⁻¹
self-cleavage kobs at 10000 uM GlcN6P [4]: < 1e-05 s⁻¹

C11G A42C
self-cleavage kobs at 160 uM GlcN6P [1]: < 1e-05 s⁻¹
self-cleavage kobs at 640 uM GlcN6P [3]: < 1e-05 s⁻¹
self-cleavage kobs at 2500 uM GlcN6P [2]: < 1e-05 s⁻¹

G9U C16A G59U G60U
self-cleavage kobs at 640 uM GlcN6P [3]: < 1e-05 s⁻¹
self-cleavage kobs at 2500 uM GlcN6P [2]: < 1e-05 s⁻¹

U55G G62C
self-cleavage kobs at 160 uM GlcN6P [1]: < 1e-05 s⁻¹
self-cleavage kobs at 640 uM GlcN6P [3]: < 1e-05 s⁻¹
self-cleavage kobs at 2500 uM GlcN6P [2]: < 1e-05 s⁻¹
self-cleavage kobs at 10000 uM GlcN6P [4]: < 1e-05 s⁻¹

G7C G9C
self-cleavage kobs at 640 uM GlcN6P [3]: < 1e-05 s⁻¹
self-cleavage kobs at 2500 uM GlcN6P [2]: < 1e-05 s⁻¹

G7A U54G
self-cleavage kobs at 160 uM GlcN6P [1]: < 1e-05 s⁻¹
self-cleavage kobs at 10000 uM GlcN6P [4]: 4.41e-05 ± 1.5e-05 s⁻¹

G29C G41C G60A
self-cleavage kobs at 160 uM GlcN6P [1]: < 1e-05 s⁻¹
self-cleavage kobs at 640 uM GlcN6P [3]: < 1e-05 s⁻¹
self-cleavage kobs at 2500 uM GlcN6P [2]: < 1e-05 s⁻¹
self-cleavage kobs at 10000 uM GlcN6P [4]: < 1e-05 s⁻¹

A39U C61U G62U
self-cleavage kobs at 160 uM GlcN6P [1]: < 1e-05 s⁻¹
self-cleavage kobs at 640 uM GlcN6P [3]: < 1e-05 s⁻¹
self-cleavage kobs at 2500 uM GlcN6P [2]: < 1e-05 s⁻¹

C10A C11G A12C G13U
self-cleavage kobs at 160 uM GlcN6P [1]: < 1e-05 s⁻¹
self-cleavage kobs at 2500 uM GlcN6P [2]: < 1e-05 s⁻¹

C67G C68A
self-cleavage kobs at 160 uM GlcN6P [1]: 7.05e-05 ± 2.1e-05 s⁻¹
self-cleavage kobs at 640 uM GlcN6P [3]: 3.85e-05 ± 1.1e-05 s⁻¹
self-cleavage kobs at 2500 uM GlcN6P [2]: 2.05e-05 ± 7.5e-06 s⁻¹

A6G A42C U56A C61G
self-cleavage kobs at 640 uM GlcN6P [3]: < 1e-05 s⁻¹

A36C G41C C50U A64U C68A
self-cleavage kobs at 160 uM GlcN6P [1]: < 1e-05 s⁻¹
self-cleavage kobs at 640 uM GlcN6P [3]: < 1e-05 s⁻¹
self-cleavage kobs at 2500 uM GlcN6P [2]: < 1e-05 s⁻¹
self-cleavage kobs at 10000 uM GlcN6P [4]: < 1e-05 s⁻¹

A6G A14G C16U G32U G35C G41C C50A C71G
self-cleavage kobs at 160 uM GlcN6P [1]: < 1e-05 s⁻¹
self-cleavage kobs at 2500 uM GlcN6P [2]: < 1e-05 s⁻¹

U31C G32C A33U C34A U49A
self-cleavage kobs at 160 uM GlcN6P [1]: < 1e-05 s⁻¹
self-cleavage kobs at 2500 uM GlcN6P [2]: < 1e-05 s⁻¹
self-cleavage kobs at 10000 uM GlcN6P [4]: < 1e-05 s⁻¹

G29U G35U G38U A52G
self-cleavage kobs at 160 uM GlcN6P [1]: < 1e-05 s⁻¹
self-cleavage kobs at 640 uM GlcN6P [3]: < 1e-05 s⁻¹

C16U G43U G59U
self-cleavage kobs at 160 uM GlcN6P [1]: < 1e-05 s⁻¹
self-cleavage kobs at 640 uM GlcN6P [3]: < 1e-05 s⁻¹

A12U C67U C71G
self-cleavage kobs at 640 uM GlcN6P [3]: 7.19e-05 ± 2.7e-05 s⁻¹
self-cleavage kobs at 2500 uM GlcN6P [2]: 6.07e-05 ± 1.3e-05 s⁻¹
self-cleavage kobs at 10000 uM GlcN6P [4]: 4.02e-05 ± 2e-05 s⁻¹

A14G G35U G40A
self-cleavage kobs at 160 uM GlcN6P [1]: < 1e-05 s⁻¹

G13U G51C G62C
self-cleavage kobs at 640 uM GlcN6P [3]: < 1e-05 s⁻¹

A33G A36U C70G
self-cleavage kobs at 640 uM GlcN6P [3]: 0.000157 ± 5.3e-05 s⁻¹

U45C C61A
self-cleavage kobs at 160 uM GlcN6P [1]: < 1e-05 s⁻¹
self-cleavage kobs at 2500 uM GlcN6P [2]: < 1e-05 s⁻¹
self-cleavage kobs at 10000 uM GlcN6P [4]: < 1e-05 s⁻¹

G13U A15C C58G
self-cleavage kobs at 640 uM GlcN6P [3]: 0.00154 ± 0.00048 s⁻¹
self-cleavage kobs at 2500 uM GlcN6P [2]: 7.7e-05 ± 2.3e-05 s⁻¹
self-cleavage kobs at 10000 uM GlcN6P [4]: 8.16e-05 ± 1.4e-05 s⁻¹

C34U A52C A64U C67U
self-cleavage kobs at 160 uM GlcN6P [1]: < 1e-05 s⁻¹
self-cleavage kobs at 640 uM GlcN6P [3]: < 1e-05 s⁻¹
self-cleavage kobs at 2500 uM GlcN6P [2]: < 1e-05 s⁻¹

A15G G40A A53G
self-cleavage kobs at 160 uM GlcN6P [1]: 0.000772 ± 0.00017 s⁻¹
self-cleavage kobs at 2500 uM GlcN6P [2]: 0.00292 ± 0.00062 s⁻¹

G13U G29U A39G
self-cleavage kobs at 640 uM GlcN6P [3]: 0.000115 ± 2.8e-05 s⁻¹
self-cleavage kobs at 2500 uM GlcN6P [2]: 7.21e-05 ± 2.3e-05 s⁻¹

C8A A14U
self-cleavage kobs at 160 uM GlcN6P [1]: < 1e-05 s⁻¹
self-cleavage kobs at 640 uM GlcN6P [3]: < 1e-05 s⁻¹
self-cleavage kobs at 2500 uM GlcN6P [2]: < 1e-05 s⁻¹

A1C U30G
self-cleavage kobs at 160 uM GlcN6P [1]: 0.000834 ± 0.00021 s⁻¹
self-cleavage kobs at 640 uM GlcN6P [3]: 0.00402 ± 0.0016 s⁻¹
self-cleavage kobs at 2500 uM GlcN6P [2]: 0.00723 ± 0.0018 s⁻¹

G29U G35C A52G
self-cleavage kobs at 640 uM GlcN6P [3]: < 1e-05 s⁻¹
self-cleavage kobs at 2500 uM GlcN6P [2]: < 1e-05 s⁻¹

G29A G35A
self-cleavage kobs at 160 uM GlcN6P [1]: < 1e-05 s⁻¹
self-cleavage kobs at 2500 uM GlcN6P [2]: < 1e-05 s⁻¹

A6U G7C G13U A36C
self-cleavage kobs at 640 uM GlcN6P [3]: < 1e-05 s⁻¹

G38A G40U
self-cleavage kobs at 160 uM GlcN6P [1]: < 1e-05 s⁻¹
self-cleavage kobs at 640 uM GlcN6P [3]: < 1e-05 s⁻¹
self-cleavage kobs at 2500 uM GlcN6P [2]: < 1e-05 s⁻¹
self-cleavage kobs at 10000 uM GlcN6P [4]: < 1e-05 s⁻¹

G29A C50G
self-cleavage kobs at 160 uM GlcN6P [1]: 0.000108 ± 3.1e-05 s⁻¹
self-cleavage kobs at 640 uM GlcN6P [3]: 3.64e-05 ± 1.5e-05 s⁻¹
self-cleavage kobs at 2500 uM GlcN6P [2]: 0.00038 ± 0.00019 s⁻¹

A6G C50G G51A
self-cleavage kobs at 640 uM GlcN6P [3]: < 1e-05 s⁻¹
self-cleavage kobs at 2500 uM GlcN6P [2]: < 1e-05 s⁻¹
